Results from patent publication US20090169520A1, “Compounds, Pharmaceutical Compositions and Therapeutic Methods of Preventing and Treating Diseases and Disorders Associated With Amyloid Fibril Formation” (YISSUM RESEARCH DEVELOPMENT COMPANY OF THE HEBREW …, priority 2005, published 2009).
Ends that are not written are not given here.

Key:
Aβ (1-40) peptide = molecular target: T1, Aβ (1-40) peptide (Homo sapiens, UniProt P05067); assay: In vitro formation of amyloid fibril from Aβ (1-40), Thioflavin T fluorescence; type: biochemical; details: for effect on Aβ fibril formation (in words): 33 μM Aβ, ThT fluorescence; for Lag (fold change) / Rate (fold change): relative to No addition, asterisk = statistically significant
T1 construct: synthetic Aβ (1-40) peptide; purchased Biosource, Camarillo, Calif., USA; host or cells: chemical synthesis
T1 sequence (P05067 672-711 limits assumed): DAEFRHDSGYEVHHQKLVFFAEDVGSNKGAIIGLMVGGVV
Excerpt: In vitro formation of amyloidfibril—In vitro formation of amyloid fibril was in the presence of the synthetic Aβ (1-40) peptide (Biosource, Camarillo, Calif., USA) as a precursor. The reporter molecule was Thioflavin T (ThT) (Sigma, Cat. No. T-3516, Jerusalem, Israel), a benzothiazole dye that undergoes a shift in its excitation spectrum (from 340 nm to 450 nm) when interacting with β-sheet amyloid structures. The resultant ThT fluorescence signal is proportional to the amount of amyloid formed (LeVine, 1993). A stock solution of Aβ in dimethylsulfoxide (DMSO) was diluted with phosphate-buffered saline (PBS) containing 0.02% Na-Azid to a final concentration of 162 μM and 20 μl of the diluted Aβ solution was placed in each well of a 96 multiwell plate (Nunc, Roskilde, Denmark). After 20 minutes of pre-incubation at room temperature of the Aβ samples (20 μl), 80 μl of 1.25 μM ThT in 50 mM glycine buffer, pH 8.5, was added. Incubation was with shaking at 200 rpm for 6 to 8 hours at the noted temperatures. Fluorescence was measured continuously or at 30-40 minute intervals, using a Spectro-fluorometer (Tecan, Maennedorf, Switzerland). Excitation and emission wavelengths were 450 nm and 485 nm, respectively. Enhancement of the fibrillation process by the different combinations of water-dissolved cholinesterases and peptides mimicking fragments thereof, was evaluated by dissecting the time curves into two stages: the lag before the onset of the fluorescence increase (the nucleation process) and the average rate of fluorescence increase at several time points (rate of fibrils formation). Statistics analysis was performed using the Kaleidagraph Software (Reading, Pa., USA).
BChE attenuates amyloid fibrils formation—Amyloid fibril (Aβ) formation was quantified by measuring changes in ThT fluorescence. As predicted, Aβ fibrils were spontaneously formed in vitro provided that the Aβ peptide was present above 5 μM. […] Reactions were performed in the absence or presence of increasing concentrations of purified human BChE (SEQ ID NO:2; FIG. 1a), recombinant ACHE-S (SEQ ID NO:6; FIG. 1b) or both (FIGS. 1c and d). […] Due to the complex kinetics of the fibril formation process the apparent rate of change in ThT fluorescence was repeatedly determined during the exponential phase of increase in its signal (at 390±20 minutes). […] In contrast, addition of similar doses of AChE to Aβ, predictably shortened by half the lag time prior to fibril formation, again in a dose dependent manner (FIG. 1e). The lag period therefore decreased from 240 minutes to 150 minutes and the maximal rate of fibril formation increased from 0.057 to 0.116 fluorescence units (FU)/min for Aβ alone as compared to Aβ in the presence of 0.36 μM AChE-S (FIG. 1b and Table 7, hereinbelow). When increasing doses of hBChE were added to a combined mix of 33 μM Aβ with 0.36 μM AChE-S, a dose-dependent interference with the fibril formation process was observed (FIG. 1c and 2a). Thus, BChE is capable of reducing the rate of fibrillation of Aβ alone, or Aβ which is formed in the presence of AChE.

[1] = Solubility in water for CD measurements; type: physicochemical; details: up to the concentration required for CD tests (1×10^−4 M); HFIP used instead
Procedure: Circular Dichroism (CD) measurements—For circular dichroism (CD) measurements, ASP peptides were dissolved in double distilled water (DDW) to a final concentration of 1×10^−4 M. To reach this concentration, as required for the CD measurements, BSP had to be dissolved in 1,1,1,3,3,3-hexafluoro-2-propanol (HFIP). Direct CD spectra were recorded at room temperature using a CD Jasco J-810 Spectropolarimeter (Easton, Md., USA) with a 1 mm path length cell. Recordings were at 0.5 nm intervals in the spectral range 185-260 nm.
Molecular modeling points at putative structural differences between BSP and ASP—In search for structural differences between the BSP and ASP peptides, the circular dichroism (CD) properties of the synthesized series of BSP and ASP peptides were determined (FIG. 4). […] The helical features observed for ASP40 are in line with reports of others (Cottingham et al., 2003).

Substance | effect on Aβ fibril formation (in words) (Aβ (1-40) peptide) | Lag (fold change) (Aβ (1-40) peptide) | Rate (fold change) (Aβ (1-40) peptide) | solubility in water (in words) [1]
ASP23: synthetic AChE-S C-terminal peptide, mimics residues 592-614 in hAChE [reference compound] | no significant effect on amyloid formation | 1.1 | 1.2 | –
ASP40: synthetic AChE-S C-terminal peptide, mimics residues 575-614 in hAChE (DTLDEAERQWKAEFHRWSSYMVHWKNQFDHYSKQDRCSDL; ASP40 Synthetic peptide) [reference compound] | failed to show any significant capacity to activate or inhibit fibrillation | 1.1 | 0.8 | –
GNIDEAEWEWKAGFHRWNNYMMDWKNQFNDYTSKKESCVGL [BSP41] | – | – | – | difficulties to solubilize
